Assay results published in publication PMC11097083 (Molecular & Cellular Proteomics : MCP, 2024).
Substitutions are numbered along the chain they refer to. Names may count otherwise.

B1: galectin-4 (Gal-4), full-length (natural protein, human, UniProt P56470 1-323, looked up)
chain: MAYVPAPGYQPTYNPTLPYYQPIPGGLNVGMSVYIQGVASEHMKRFFVNFVVGQDPGSDVAFHFNPRFDGWDKVVFNTLQGGKWGSEERKRSMPFKKGAAFELVFIVLAEHYKVVVNGNPFYEYGHRLPLQMVTHLQVDGDLQLQSINFIGGQPLRPQGPPMMPPYPGPGHCHQQLNSLPTMEGPPTFNPPVPYFGRLQGGLTARRTIIIKGYVPPTGKSFAINFKVGSSGDIALHINPRMGNGTVVRNSLLNGSWGSEEKKITHNPFGPGQFFDLSIRCGLDRFKVYANGQHLFDFAHRLSAFQRVDTLEIQGDVTLSYVQI
B2: Gal-4NM (R67H), N-terminal domain mutant of full-length Gal-4 (natural protein, human, UniProt P56470 1-323, looked up)
chain: B1 chain with R67H
B3: Gal-4CM (R240H), C-terminal domain mutant of full-length Gal-4 (natural protein, human, UniProt P56470 1-323, looked up)
chain: B1 chain with R240H

What was measured:
[1] = target: galectin-4 C-terminal carbohydrate recognition domain (Gal-4C) (human); assay: AUC
[2] = target: galectin-4 C-terminal carbohydrate recognition domain (Gal-4C) (human); assay: cross-linking
[3] = target: the molecule itself; assay: cross-linking

Row | Molecule | stoichiometry N [1] | stoichiometry N [2] | stoichiometry N [3]
1 | galectin-4 C-terminal carbohydrate recognition domain (Gal-4C) (domain or fragment) | 2 | 2 | 
2 | B1 |  |  | 2
3 | B2 |  |  | 2
4 | B3 |  |  | 2
